Assay results published in the supplement of paper PMC9732359.
± gives the uncertainty stated by the source.

Assay: protein stability index of a GFP-peptide fusion (yeast GPS) (PSI 1-4); higher = more stable; sorted into four equal gates, so the index is relative within each strain
Procedure, shortened: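 The protein stability index combines read frequencies across sorting gates, each weighted by its gate number and then summed. To obtain those frequencies, a pooled yeast library of GFP fusions to tiled 17-residue yeast protein peptides, on a plasmid also expressing Cherry, was grown to mid-log phase in leucine-free medium. The cells were sorted into four equal gates by GFP/Cherry ratio before plasmid amplification by PCR and Illumina sequencing.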

| Sequence | protein stability index (doa10∆) | protein stability index (pdr5∆) | protein stability index (san1∆) | protein stability index (ubr1∆) |
| --- | --- | --- | --- | --- |
| FKGTDFVHSVKKFLRVR [SRB4] | 2.66 ± 0.077 | 2.64 ± 0.066 | 2.83 ± 0.058 | 2.87 ± 0.054 |
| EKKDDNSSKPAFSFGAK [YJL041W/NSP1] | 2.3 ± 0.054 | 1.86 ± 0.039 | 2.02 ± 0.06 | 2.25 ± 0.037 |
| PDKDYLLSIPISCPLIG [FAS1] | 1.28 ± 0.19 | 1.64 ± 0.13 | 1.25 ± 0.19 | 1.07 ± 0.077 |
| SEYKVAFPHLYNSRPRS [PRP8] | 2.91 ± 0.071 | 2.66 ± 0.072 | 2.85 ± 0.086 | 2.77 ± 0.06 |
| AVPLQIVSPQSNKPCMG [RPO21] | 1.72 ± 0.059 | 1.71 ± 0.038 | 2.03 ± 0.065 | 1.78 ± 0.035 |
| SYLISHKDSFYDRATLT [RPO31] | 2.43 ± 0.073 | 2.6 ± 0.067 | 2.21 ± 0.065 | 2.35 ± 0.072 |
| KHYLEDKLKVYKQAMNE [SNF5] | 3.19 ± 0.093 | 3.18 ± 0.12 | 3.1 ± 0.1 | 3.08 ± 0.067 |
| QRQLLVQQQQQQQLRNQ [SNF5] | 2.2 ± 0.071 | 2.54 ± 0.11 | 2.44 ± 0.19 | 2.6 ± 0.1 |
| FFKPLDYITEAVFKIVL [SNU114] | 2.06 ± 0.047 | 1.95 ± 0.055 | 1.47 ± 0.073 | 1.88 ± 0.035 |
| ALPRKLRRRTASHNVRR [POP1] | 2.91 ± 0.058 | 3.06 ± 0.06 | 2.79 ± 0.056 | 2.74 ± 0.039 |
| EGQIIQRSNISTAIKSL [CDC53] | 1.55 ± 0.056 | 2.33 ± 0.099 | 2.46 ± 0.16 | 1.79 ± 0.079 |
| SFPILDQCVGQVGLNFE [YMR129W/POM152] | 3.07 ± 0.083 | 2.96 ± 0.11 | 3.1 ± 0.056 | 3.02 ± 0.07 |
| RLNYLYQISAYQTRARQ [RPR2] | 1.56 ± 0.034 | 1.84 ± 0.037 | 1.85 ± 0.054 | 1.89 ± 0.035 |
| FVCEKSIEFAKREKRVF [RPN6] | – | – | – | 2.41 ± 0.25 |
| AADNLGSYGSLLRFNGV [PRE4] | 3.03 ± 0.088 | 3.15 ± 0.078 | 3.25 ± 0.12 | 3.04 ± 0.21 |
| WSHNGPFETFDHASIRR [CYT1] | 2.79 ± 0.06 | 3 ± 0.062 | 2.79 ± 0.051 | 2.96 ± 0.043 |
| VKSFKPHLLKQGLAMVE [RRP42] | 2.01 ± 0.13 | 2.35 ± 0.1 | – | 2.29 ± 0.2 |
| TLDKKDSIPLRITNSFY [RPN9] | 2.52 ± 0.13 | 2.81 ± 0.11 | 2.9 ± 0.096 | 2.92 ± 0.13 |
| MDRDSESEEAETKDIRK [SRB4] | 3.21 ± 0.17 | 3.13 ± 0.14 | 2.62 ± 0.28 | 2.95 ± 0.16 |
| KTWEKVTLDFGNIFADL [SMC2] | 2.81 ± 0.099 | 2.92 ± 0.12 | 3.39 ± 0.1 | 3.12 ± 0.13 |
| RDVELSSDELKVIEEQL [SMC4] | 3.27 ± 0.058 | 3.25 ± 0.072 | 2.94 ± 0.054 | 3.26 ± 0.055 |
| EYALPKTYNKLHYCVSC [RPS26A] | 1.24 ± 0.069 | 1.42 ± 0.055 | 1.34 ± 0.12 | 1.41 ± 0.04 |
| TKVNNQLIKVAVHNGDR [RPL9B] | 1.92 ± 0.074 | 1.52 ± 0.06 | 1.78 ± 0.086 | 2.4 ± 0.029 |
| SIFAMGLCGAGTNNARL [RPN1] | 2.44 ± 0.058 | 1.27 ± 0.043 | 1.24 ± 0.094 | 1.12 ± 0.039 |
| QYQLLYNLKNDILTNLE [SWI1] | 1.81 ± 0.033 | 1.89 ± 0.037 | 1.74 ± 0.077 | 1.65 ± 0.031 |
| IWLIKCCYFIEWKSNHK [SRB8] | 1.69 ± 0.067 | 2.12 ± 0.063 | 2.55 ± 0.063 | 2.59 ± 0.15 |

| Sequence | protein stability index (doa10∆) | protein stability index (pdr5∆) | protein stability index (san1∆) | protein stability index (ubr1∆) |
| --- | --- | --- | --- | --- |
| ISLYFNDILDELLCGMA [ECM29] | 1.64 ± 0.1 | 1.81 ± 0.069 | 2.04 ± 0.18 | 1.48 ± 0.06 |
| SGHDDLVHDVVYDFYGR [YGL100W/SEH1] | 2.49 ± 0.068 | 2.75 ± 0.067 | 2.39 ± 0.089 | 2.5 ± 0.065 |
| MAQTATQQQPGAPGANA [SRP54] | 3.31 ± 0.065 | 3.22 ± 0.088 | 3.33 ± 0.054 | 3.21 ± 0.05 |
| AIALAVRLGEEDMIRSV [RPN1] | 3.42 ± 0.14 | 3.4 ± 0.13 | 3.39 ± 0.1 | 3.39 ± 0.14 |
| VAQGIMNAGGRNVTIQL [RPN2] | – | 2.61 ± 0.21 | – | – |
| AKGVYRPNGRKDHDLKI [POP1] | 2.88 ± 0.078 | 3.08 ± 0.052 | 2.93 ± 0.049 | 3.03 ± 0.061 |
| EEIPINSSEQESDYEPN [SIR3] | 2.82 ± 0.068 | 3.15 ± 0.067 | 3 ± 0.045 | 2.77 ± 0.048 |
| DSLIQLANRSKENFILD [YJL039C/NUP192] | – | – | 3.23 ± 0.14 | 3.13 ± 0.11 |
| HKSIELISNLLFSKNRN [YCS4] | 2.25 ± 0.055 | 2.47 ± 0.047 | 2.52 ± 0.046 | 2.41 ± 0.05 |
| RLISQSLLASKSTYRTP [RIP1] | 2.79 ± 0.12 | 3.04 ± 0.21 | 2.82 ± 0.22 | 2.45 ± 0.14 |
| HKLRESLPLIVFLRNRL [RPS4A] | 1.85 ± 0.052 | 1.57 ± 0.053 | 1.4 ± 0.1 | 1.43 ± 0.043 |
| TIRLWECGTGTTIHTFN [RPN14] | 2.11 ± 0.18 | 2.4 ± 0.11 | 2.21 ± 0.12 | 1.99 ± 0.13 |
| IKQTFKNDLFVIWSEDN [RPO21] | 2.13 ± 0.057 | 2.32 ± 0.063 | 2.31 ± 0.058 | 2.36 ± 0.056 |
| KSQEQREHSLQLFRTNK [PRP28] | 3 ± 0.24 | 2.51 ± 0.11 | 2.88 ± 0.12 | 2.9 ± 0.076 |
| RNRGKIHSGVLSSIESD [YMR153W/NUP53] | 2.93 ± 0.1 | 2.96 ± 0.12 | 3.13 ± 0.066 | 2.94 ± 0.087 |
| SIPNLFPTDLEIFQLFT [SWI1] | 2.6 ± 0.14 | 2.22 ± 0.12 | 2.27 ± 0.12 | 3.09 ± 0.19 |
| NWLSIFNDFSNIKTSEW [REC8] | 2.67 ± 0.082 | 2.95 ± 0.061 | 2.94 ± 0.091 | 2.91 ± 0.085 |
| SLLPYYHLTKAVKLGDL [RPN3] | 2.21 ± 0.052 | 1.74 ± 0.052 | 1.72 ± 0.073 | 1.78 ± 0.066 |
| SFVFGQAAAKPSLEKSS [YLR335W/NUP2] | 1.79 ± 0.1 | 2.5 ± 0.1 | 2.21 ± 0.14 | 2.67 ± 0.09 |
| NMNNGGKELDSLDLNNL [PGD1] | 3.06 ± 0.11 | 3.24 ± 0.11 | 3.06 ± 0.079 | 3.26 ± 0.065 |
| GGLKSCDLDFPLRENTN [YDL116W/NUP84] | 2.59 ± 0.058 | 2.29 ± 0.059 | 2.25 ± 0.077 | 2.2 ± 0.057 |
| CILRFLQLPIEDKFLYG [SWI3] | 1.85 ± 0.07 | 1.72 ± 0.085 | 1.18 ± 0.19 | 1.18 ± 0.077 |
| EEKQKSYKFPRGTTAVL [PUP1] | 3.37 ± 0.12 | 3.11 ± 0.13 | 3.14 ± 0.099 | 2.91 ± 0.088 |
| LLKKATKPEVASDMSDE [CDC53] | 2.67 ± 0.11 | 2.61 ± 0.14 | 2.84 ± 0.086 | 2.89 ± 0.11 |
| EGEYELTEAVEDGPRPF [RPL5] | – | 3.31 ± 0.17 | 3.38 ± 0.066 | – |
